Carnitine transporting activity data for two molecules are collected here from patent US6790831B2, “Systemic carnitine deficiency gene and use thereof” (Chugai Seiyaku Kabushiki Kaisha, priority 1998, dated 2004).

Residue numbers refer to the chain shown, from its start. Entries after “also recorded” stand apart in the source; their conditions may differ.

For this test, the system named is HEK293 cells. The experiment in a line: carnitine transporting activity assay of mouse OCTN2 expressed from plasmid DNA in HEK293 cells. In kind it is cell-based. The settings on record: plasmid DNA expressing the protein introduced into HEK293 cells; Mock = cDNA-non-containing vector; FIG. 3. As to the method:
Another embodiment of the therapeutic drug for systemic carnitine deficiency uses a compound that enhances the activity of the OCTN2 protein as the active ingredient. Such a compound can be screened as follows. For example, a plasmid expressing the OCTN2 protein is constructed, and this is introduced into HEK293 cells by the calcium phosphate method. Radiolabeled carnitine and a test compound are added to this transformant and the carnitine transporting activity into the cells is determined. A compound that can enhance the carnitine transporting activity is selected by comparing with the activity of the OCTN2 protein in the absence of the test compound. See Japanese Patent Application Hei 9-260972 and Hei 10-156660 for the detailed method.
Next, the effect this mutation has on the carnitine transporting activity was examined. Plasmid DNA expressing wild-type mouse OCTN2, and those expressing mutated OCTN2 were separately introduced into HEK293 cells, and then, carnitine transporting ability was measured similar to the assay of human OCTN2 described in Japanese Patent Application Hei 10-156660 (FIG. 3). […] However, both proteins were confirmed to be expressed at a similar amount by a western blotting using an antibody against the c-myc epitope sequence (NH2—EQKLISEEDL—COOH; SEQ ID NO:26) added to the C terminus (FIG. 4).

B1: wild-type mouse OCTN2: mouse OCTN2 protein, amino acid sequence SEQ ID NO:3, sodium-ion dependent carnitine transporter (protein)
chain: MRDYDEVTAFLGEWGPFQRLIFFLLSASIIPNGFNGMSIVFLAGTPEHRCLVPHTVNLSSAWRNHSIPLETKDGRQVPQKCRRYRLATIANFSELGLEPGRDVDLEQLEQESCLDGWEYDKDVFLSTIVTEWDLVCKDDWKAPLTTSLFFVGVLMGSFISGQLSDRFGRKNVLFLTMGMQTGFSFLQVFSVNFEMFTVLFVLVGMGQISNYVAAFVLGTEILSKSIRIIFATLGVCIFYAFGFMVLPLFAYFIRDWRMLLLALTVPGVLCGALWWFIPESPRWLISQGRIKEAEVIIRKAAKINGIVAPSTIFDPSELQDLNSTKPQLHHIYDLIRTRNIRVITIMSIILWLTISVGYFGLSLDTPNLHGDIYVNCFLLAAVEVPAYVLAWLLLQYLPRRYSISAALFLGGSVLLFMQLVPSELFYLSTALVMVGKFGITSAYSMVYVYTAELYPTVVRNMGVGVSSTASRLGSILSPYFVYLGAYDRFLPYILMGSLTILTAILTLFFPESFGVPLPDTIDQMLRVKGIKQWQIQSQTRMQKDGEESPTVLKSTAF
Turning to B1, the carnitine transporting activity entry is recorded as “sodium-dependent carnitine transporting activity is seen; also recorded: shows a carnitine transporting activity similar to human OCTN2”.

B2: mutated OCTN2: jvs mouse OCTN2 in which the 352nd leucine (CTG) is mutated to arginine (CGG) (protein, UniProt Q9Z0E8 1-557, looked up, variant L352R)
chain: B1 chain with L352R
modifications: full-length
As to B2, the carnitine transporting activity entry is “absolutely no activity”.
